test system: MCF10A; assay: one-nucleolus phenotype percent effect (relative to siNT 0% and siNOL11 100%); higher = more cells with one nucleolus (ribosome biogenesis inhibition); conditions: 20 nM; 72 h
Protocol: (§1)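 After 72 h, cells were fixed and stained with Hoechst and anti-fibrillarin, and nucleoli per nucleus were counted with CellProfiler. Values are plate-adjusted percent effect for the one-nucleolus and 5+ nucleoli phenotypes, normalised to siNT (0%) and to the positive controls siNOL11 or siKIF11 (100%), as the mean of biological triplicates. Percent viability is the nuclei count relative to siNT.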

Row | Sequence | one-nucleolus phenotype percent effect
1 | ACCACUGCACUCCAGCCUGAG [hsa-miR-1273g-3p] | 5.96%
2 | UGAGGGAGUAGGAUGUAUGGUU [hsa-miR-4510] | 13.3%
3 | GGGGCUGGGCGCGCGCC [hsa-miR-4492] | 24.8%
4 | AAUCGUACAGGGUCAUCCACUU [hsa-miR-487b] | -10.7%
5 | UAGGCAGUGUAUUGCUAGCGGCUGU [hsa-miR-449c-5p] | 17.4%
6 | UUGUUCUUUGGUCUUUCAGCCA [hsa-miR-4677-5p] | 20.3%
7 | UUAUUGUCACGUUCUGAUU [hsa-miR-5701] | 4.81%
8 | AAAAGUAAUUGCGGUCUUU [hsa-miR-548ap-5p] | -19%
9 | AAAGACUCUGCAAGAUGCCU [hsa-miR-4432] | -5.81%
10 | CAACCUCGAGGAUCUCCCCAGC [hsa-miR-3150b-5p] | -5.6%
11 | UAGGACUAGAUGUUGGAAUUA [hsa-miR-4759] | -7.56%
12 | GGGAGCCAGGAAGUAUUGAUGU [hsa-miR-505-5p] | 10.3%
13 | UACUCCAGAGGGCGUCACUCAUG [hsa-miR-508-5p] | 19.6%
14 | AAAAACCACAAUUACUUUU [hsa-miR-548ap-3p] | 16.7%
15 | CAAAAACUGCAGUUACUUUUGC [hsa-miR-548ah-3p] | -24.8%
16 | UGUGUUAGAAUAGGGGCAAUAA [hsa-miR-3152-3p] | 4.92%
17 | GUUCCACACUGACACUGCAGAAGU [hsa-miR-3692-3p] | -3.86%
18 | CUUGGGGCAUGGAGUCCCA [hsa-miR-4260] | -6.43%
19 | UAAAACCCACAAUUAUGUUUGU [hsa-miR-548as-3p] | 25.3%
20 | CAGCAGCACACUGUGGUUUGU [hsa-miR-497-5p] | 50.2%
21 | CACCCCCUGUUUCCUGGCCCAC [hsa-miR-4640-3p] | -11.3%
22 | UCAGAACAAAUGCCGGUUCCCAGA [hsa-miR-589-3p] | -20.8%
23 | CCAGGGAGGCUGGUUUGGAGGA [hsa-miR-6754-5p] | 22.6%
24 | UGGGCUCAGGGUACAAAGGUU [hsa-miR-4437] | 28.8%
25 | GCGCUGACCCGCCUUCUCCGCA [hsa-miR-6825-3p] | -15%
26 | AGCCUUCCAGGAGAAAUGGAGA [hsa-miR-5581-5p] | 20.5%
27 | GGUUCUUAGCAUAGGAGGUCU [hsa-miR-2116-5p] | 12.8%
28 | GAGCCAGUUGGACAGGAGC [hsa-miR-575] | -23.7%
29 | CAGAGAAUUGUUUAAUC [hsa-miR-3123] | -40.8%
30 | UGGCCCUUUGUACCCCUCCAG [hsa-miR-6851-3p] | -21.4%

test system: MCF10A; assay: percent viability (nuclei count relative to siNT); higher = more viable cells; conditions: 20 nM; 72 h
Protocol: as §1

Row | Sequence | percent viability
31 | CUACCCCCCAUCCCCCUGUAG [hsa-miR-6798-3p] | 72.5%
32 | AGGAGGGAAGGGGCUGAGAACAGGA [hsa-miR-6797-5p] | 80.7%
33 | AAAAGCACUUUUCUGUCUCCCAG [hsa-miR-6835-3p] | 41.3%
34 | GGCUGAGUGGGGUUCUGACUCC [hsa-miR-8077] | 31.9%
35 | AAUAUAACACAGAUGGCCUGU [hsa-miR-410] | 164%
36 | CAUUACAGCACAGCCAUUCU [hsa-miR-6504-3p] | 47.5%
37 | AGGCUGGAGUGAGCGGAG [hsa-miR-4430] | 12.7%
38 | UUGGGGUGGUCGGCCCUGGAG [hsa-miR-6737-5p] | 7.13%
39 | UUCACAUUGUGCUACUGUCUGC [hsa-miR-130a-5p] | 124%
40 | CUGAAGCUCAGAGGGCUCUGAU [hsa-miR-127-5p] | 45.5%
41 | CAAAACGUGAGGCGCUGCUAU [hsa-miR-424-3p] | 74.1%
42 | UUGGGGAUUGGGUCAGGCCAGU [hsa-miR-6857-5p] | 6.01%
43 | AAAAUUUCUUUCACUACUUAG [hsa-miR-3606-3p] | 54%
44 | CACCGGGGAUGGCAGAGGGUCG [hsa-miR-4655-5p] | 16.1%
45 | UGUUUGUUGUAAGGAUCGUUGU [hsa-miR-8068] | 34.1%
46 | CAACCCUAGGAGAGGGUGCCAUUCA [hsa-miR-652-5p] | 46.2%
47 | UGCUGGGGGCCACAUGAGUGUG [hsa-miR-4731-5p] | 20.7%
48 | UCUUUUCUUUGAGACUCACU [hsa-miR-627-3p] | 34.1%
49 | AAUCAGUGAAUGCCUUGAACCU [hsa-miR-5094] | 63.5%
50 | CAACUAGACUGUGAGCUUCUAG [hsa-miR-708-3p] | 199%

Row | Sequence | percent viability
51 | AACCCAGUGGGCUAUGGAAAUG [hsa-miR-4482-5p] | 24.6%
52 | GCUGCGCUUGGAUUUCGUCCCC [hsa-miR-191-3p] | 71%
53 | UUAAUAUCGGACAACCAUUGU [hsa-miR-889] | 108%
54 | AAAAGUAAUUGCGGGUUUUGCC [hsa-miR-548as-5p] | 160%
55 | AUGUAUGUGUGCAUGUGCAUG [hsa-miR-297] | 116%
56 | AGGUGUGUCUGUAGAGUCC [hsa-miR-3650] | 19.8%
57 | UAGGGUACUCAGAGCAAGUUGU [hsa-miR-6841-5p] | 63.6%
58 | AGAGUUAACUCAAAAUGGACUA [hsa-miR-4424] | 51.7%
59 | CGGGGUUUUGAGGGCGAGAUGA [hsa-miR-193b-5p] | 46.7%
60 | ACCACUGCACUCCAGCCUGAG [hsa-miR-1273g-3p] | 39.3%
61 | UGAGGGAGUAGGAUGUAUGGUU [hsa-miR-4510] | 16.6%
62 | GGGGCUGGGCGCGCGCC [hsa-miR-4492] | 33.5%
63 | AAUCGUACAGGGUCAUCCACUU [hsa-miR-487b] | 59.9%
64 | UAGGCAGUGUAUUGCUAGCGGCUGU [hsa-miR-449c-5p] | 17.7%
65 | UUGUUCUUUGGUCUUUCAGCCA [hsa-miR-4677-5p] | 42.5%
66 | UUAUUGUCACGUUCUGAUU [hsa-miR-5701] | 22.2%
67 | AAAAGUAAUUGCGGUCUUU [hsa-miR-548ap-5p] | 121%
68 | AAAGACUCUGCAAGAUGCCU [hsa-miR-4432] | 67.3%
69 | CAACCUCGAGGAUCUCCCCAGC [hsa-miR-3150b-5p] | 48.1%
70 | UAGGACUAGAUGUUGGAAUUA [hsa-miR-4759] | 33.2%

Row | Sequence | percent viability
71 | GGGAGCCAGGAAGUAUUGAUGU [hsa-miR-505-5p] | 68.7%
72 | UACUCCAGAGGGCGUCACUCAUG [hsa-miR-508-5p] | 60.6%
73 | AAAAACCACAAUUACUUUU [hsa-miR-548ap-3p] | 30.2%
74 | CAAAAACUGCAGUUACUUUUGC [hsa-miR-548ah-3p] | 144%
75 | UGUGUUAGAAUAGGGGCAAUAA [hsa-miR-3152-3p] | 35.1%
76 | GUUCCACACUGACACUGCAGAAGU [hsa-miR-3692-3p] | 49.6%
77 | CUUGGGGCAUGGAGUCCCA [hsa-miR-4260] | 37.7%
78 | UAAAACCCACAAUUAUGUUUGU [hsa-miR-548as-3p] | 149%
79 | CAGCAGCACACUGUGGUUUGU [hsa-miR-497-5p] | 15.2%
80 | CACCCCCUGUUUCCUGGCCCAC [hsa-miR-4640-3p] | 127%
81 | UCAGAACAAAUGCCGGUUCCCAGA [hsa-miR-589-3p] | 115%
82 | CCAGGGAGGCUGGUUUGGAGGA [hsa-miR-6754-5p] | 38%
83 | UGGGCUCAGGGUACAAAGGUU [hsa-miR-4437] | 24.3%
84 | GCGCUGACCCGCCUUCUCCGCA [hsa-miR-6825-3p] | 108%
85 | AGCCUUCCAGGAGAAAUGGAGA [hsa-miR-5581-5p] | 14.3%
86 | GGUUCUUAGCAUAGGAGGUCU [hsa-miR-2116-5p] | 35.2%
87 | GAGCCAGUUGGACAGGAGC [hsa-miR-575] | 129%
88 | CAGAGAAUUGUUUAAUC [hsa-miR-3123] | 124%
89 | UGGCCCUUUGUACCCCUCCAG [hsa-miR-6851-3p] | 49.2%

— the supplement of paper PMC10899765
